# Measurements reported in the DeepSol protein solubility set.
# Assay: soluble on expression in E. coli; label from the status in PepcDB or PDB records
row,Sequence,soluble on expression in E. coli
1,MEGVRLGWRGLSREGRGGAWHAAERTRPCTQRVPPSSQKIALQLKATLENVTNLRPVGEDFRWYLKMKCGNCGEISEKWQYIRLMDSVALKGGRGSASMVQKCKLCARENSIDILSSTIKAYNAEDNEKFKTIVEFECRGLEPVDFQPQAGFAADGVESGTVFSDINLQEKDWTDYDEKAQESVGIFEVTHQFVKC,soluble
2,GPLGSAAAATPAVRTVPQYKYAAGVRNPQQHLNAQPQVTMQQPAVHVQGQEPLTASMLASAPPQEQKQMLGERLFPLIQAMHPTLAGKITGMLLEIDNSELLHMLESPESLRSKVDEAVAVLQAHQAKEAAQKAVNSATGVPTV,soluble
3,MRSDVVARAMRLIADGTVDRDGVSGLAAQLGYTIRQLERLLQAVVGAGPLALARAQRMQTARVLIETTNLPFGDVAFAAGFSSIRQFNDTVRLACDGTPTALRARAAARFESATASAGTVSLRLPVRAPFAFEGVFGHLAATAVPGCEEVRDGAYRRTLRLPWGNGIVSLTPAPDHVRCLLVLDDFRDLMTATARCRRLLDLDADPEAIVEALGADPDLRAVVGKAPGQRIPRTVDEAEFAVRAVLAQQVSTKAASTHAGRLVAAYGRPVHDRHGALTHTFPSIEQLAEIDPGHLAVPKARQRTINALVASLADKSLVLDAGCDWQRARGQLLALPGVGPWTAEVIAMRGLGDPDAFPASDLGLRLAAKKLGLPAQRRALTVHSARWRPWRSYATQHLWTTLEHPVNQWPPQEKIALEHHHHHH,not soluble
4,MGSDKIHHHHHHMTTSEAPQCPYHLKQSLTRRPTAGARPSAAIEVDGNGIYRIHAFQAARDILRSNSVRQAGFMSESARGVRGLGNPPVLFEEGEKHHEMRRSTARYFTPTQVAEYQPMIAALADDLIAELIRRGEMNLDDLSLRLAVNVAARVVGLTSSRVPGLERRVISFVESGGDSEPSSTQPRKSRLESLRQQAKMALFYFLDVKPAIAARRQQRQDDLISHLLDREYNDLEILTECLTYGTAGMVTTREFISVAAWHLLRNPGLRAEYVHGTEPERHAILHEILRLEPVVTMLYRRAEGELTVAGQTIPAGSLLALHLQEANTDPAVAGADAEQLCPGRTLPRGVAPQVLAFGDGHHRCPGAFLAIKESDVFLRRLLVWQDLEIVSEPEVNSNEVVKGYELRGFRVRLGRAARP,not soluble
5,MGNIKVTRDDWLNVAMDVLVSDGVEQVKVMNLAERMAVSRSSFYWYFKSRQDLLDALLAKWQATNTAGLIAQTELPAQTITGAVCNLFHCVVDPALFDTALDFAVRDWARRSGKVRRLLDLSDSRRLEALTAMFLRYDYSQIEAETRARVLYYMQIGYDLAQMNEPIDQRLSFVRHYLFVFTGVQARDEEVAAFSAFARGFWEGRRP,not soluble
6,MVSEEEEEEDGDAEETQDSEDDEEDEMEEDDDDSDYPEEMEDDDDDASYCTESSFRSHSTYSSTPGRRKPRVHRPRSPILEEKDIPPLEFPKSSEDLMVPNEHIMNVIAIYEVLRNFGTVLRLSPFRFEDFCAALVSQEQCTLMAEMHVVLLKAVLREEDTSNTTFGPADLKDSVNSTLYFIDGMTWPEVLRVYCESDKEYHHVLPYQEAEDYPYGPVENKIKVLQFLVDQFLTTNIAREELMSEGVIQYDDHCRVCHKLGDLLCCETCSAVYHLECVKPPLEEVPEDEWQCEVCVAHKVPGVTDCVAEIQKNKPYIRHEPIGYDRSRRKYWFLNRRLIIEEDTENENEKKIWYYSTKVQLAELIDCLDKDYWEAELCKILEEMREEIHRHMDITEDLTNKARGSNKSFLAAANEEILESIRAKKGDIDNVKSPEETEKDKNETENDSKDAEKNREEFEDQSLEKDSDDKTPDDDPEQGKSEEPTEVGDKGNSVSANLGDNTTNATSEETSPSEGRSPVGCLSETPDSSNMAEKKVASELPQDVPVGDFKSEKSNGELSESPGAGKGASGSTRIITRLRNPDSKLSQLKSQQVAAAAHEANKLFKEGKEVLVVNSQGEISRLSTKKEVIMKGNINNYFKLGQEGKYRVYHNQYSTNSFALNKHQHREDHDKRRHLAHKFCLTPAGEFKWNGSVHGSKVLTISTLRLTITQLENNIPSSFLHPNWASHRANWIKAVQMCSKPREFALALAILECAVKPVVMLPIWRESLGHTRLHRMTSIEREEKEKVKKKKKK,soluble
7,MGSDKIHHHHHHMNGSATRTVAGVSVPDTTIVARTLDYARLEYEPYLFNHVVRSWLFAVRIAQLRNIDHDAEVVAVGTLLHDVTLNERFDGPRRFEVEGADLARVFAREGGVDERRAQLIWDSVALNSTPSIGLYKEAEVALCTAGIGLDVIGFQYERIPSEEIARIVQEYPRLNMKRRMTKCFCHIAEKRPETTYDNFVRDFGERHILGYRAPSSVDLVANAPFDE,not soluble
8,MDLAAHIDHTLLKPTATLEEVAKAAEEALEYGFYGLCIPPSYVAWVRARYPHAPFRLVTVVGFPLGYQEKEVKALEAALACARGADEVDMVLHLGRAKAGDLDYLEAEVRAVREAVPQAVLKVILETGYFSPEEIARLAEAAIRGGADFLKTSTGFGPRGASLEDVALLVRVAQGRAQVKAAGGIRDRETALRMLKAGASRLGTSSGVALVAGEGGTLGY,soluble
9,SGEKSENCGVPEDLLNGLKVTDTQEAECAGPPVPDPKNQHSQSKLLRDDEAHLQEDQGEEECFHDCSASFEEEPGADKVENKSNEDVNSSELDEEYLIELKKNMSDEEKQKRREESTRLKEEGNEQFKKGDYIEAESSYSRALEMCPSCFQKERSILFSNRAAARMKQDKKEMAINDCSKAIQLNPSYIRAILRRAELYEKTDKLDEALEDYKSILEKDPSIHQAREACMRLPKQIEERNERLKEEMLGKLKDLGNLVLRPFGLSTENFQIKQDSSTGSYSINFVQNPNNNR,soluble
10,MGSDKIHHHHHHMLQTLQKDAIELLKTLIKTESFSKEEHNTAEILNTFLVERGVETIREKNNVWAFNKHFDKNKPTILLNSHHDTVKPNPGYTNDPFEPIVKDGKLFGLGSNDAGGCLVSLIATFLHFYNETNLKYNFCIAATAEEEISGFDGLELVYPKLGPIDFAIVGEPTLMDIAVAEKGLMVVDCVAIGKAGHAAREEGENAIYIALKDIEWIRNYKFERVSPHLGPMKMSVTIINAGYQHNVVPEKCHFTIDVRITEEYKNEEVLKIIDDNIQSEVNPRSVRLRPSFIDPNHELVHAAIKHGAKTYGSPTTSDQALIPVPSVKMGPGNSARSHTANEFIWLIEIEEGIEKYIKVLSEIVLA,not soluble
11,MSYYHHHHHHLESTSLYKKAGLQALLLEQQDGKTLASVQTLDESRLPEGDVTVDVHWSSLNYKDALAITGKGKIIRNFPMIPGIDFAGTVRTSEDPRFHAGQEVLLTGWGVGENHWGGLAEQARVKGDWLVAMPQGLDARKAMIIGTAGFTAMLCVMALEDAGVRPQDGEIVVTGASGGVGSTAVALLHKLGYQVVAVSGRESTHEYLKSLGASRVLPRDEFAESRPLEKQVWAGAIDTVGDKVLAKVLAQMNYGGCVAACGLAGGFTLPTTVMPFILRNVRLQGVDSVMTPPERRAQAWQRLVADLPESFYTQAAKEISLSEAPNFAEAIINNQIQGRTLVKVN,soluble
12,MGHHHHHHSHMYAKEIFSYMKEREEQFILTDYMNRQIEITSDMRAILVDWLVEVQVSFEMTHETLYLAVKLVDLYLMKAVCKKDKLQLLGATAFMIAAKFEEHNSPRVDDFVYICDDNYQRSEVLSMEINILNVLKCDINIPIAYHFLRRYAR,not soluble
13,MGSDKIHHHHHHMSERKPIPKSVKKVLRSEVGFGCPVKGCGNPYLEYHHFDPPVSVKPHNEPEGMIALCAQHHKKADGGAYTIEQLHALKKDKANAKLVRGNLDWLRKDLLAVVGGNFYYETPRIITIDNIDLVSLVRDEDGYLRLNVNMLSLEPDERIIIEENSWENIGSPLDLRSPPQGKELEISYHNGDYLYLRFIELQSFEQAQQRYETDVFKDITFPITAVEVNMTIAGTRIELTPISSQLGGIKMTGCLSSHCGGGVVIQNSGIQWKQNPVWKRKTLVEETEHPNVVKVNFGRR,not soluble
14,MGSDKIHHHHHHSDKKNTADESEKGVSTVLPDTKNEVAVQILKKRDFHHELVSNGKISARGKADLRFETGEVIAHIYVKNGDRVQKGQKLADLDKFRLEQKLSQSEDALLKAELELKDVLIGQGYSPDDFSKVPAETMKIAKVKSGYEQSKSQYELAKREMEHATLIAPFDGVVANLFSKPYNPANTSEAFCTIIDSKGMEADFTVLENELAFIRMGDKVVITPYAGGDAFEGSVSEINPLVDANGMVKVKALVNAGGKLFSGMNVRVSVRRSLGERLVIPKSAVVLRSGKQVVFTLKDGKAMWNYVNTGLENAIECVVSDKSQKGIEDGLLEGDTVIVTGNLNLAHEAEVYVK,not soluble
15,MATFNLNGLGTPKSATYDNESAYRELLSRVNNGESIVVSVYTDKDNYPAFGIETKKVARFKVRVNQSLLSLLVGYLNNSTVNEDTVRANEVEPNEEGQDFTTDLFKLLIDEGFTPQIAPLFRTVYGYVNAVFNFPNGRMYFRLEHTDELMDYLADKKLL,not soluble
16,MTYLLLDYFDEKFPDEKAVKEMKPFRRHRWFFKEGTTNYSHSERNKLPEGAAYAGHRTPLISGECKVYGCWPNGYDNVGEEEWAKIPTDARQKFKAALNDTAEIVVSGIECRRSFQYIDDKLLSAMDNYSELEKLPVAYSFSATKFYPSLIPFLETRWTATKLDWKNHGQNNLDLSRTHLREITLDGEGLKSVSLPESCRTISFSSTLSPELKVYSPDGGSNLTLKIELEADHVPDVGLPQLEILVLDRAVKLDLLPVTNLYPNLYYLRICGKPGYLSNISSLRNLKTLEVLSLEEIFGFTAEEFPTPGTCPLLNTLWMESIPEEAGKQIKKKYKGKITELDIRKLRKPEWLAENLDNPLRHWDGSEFVPPAKFKKAVVIYRNARRDALVAANQYLIDRDAALLQNRLEQTGKEFVIAFNKLDGKSGFIETEEREDLCAAFQVILDAVDSSVNFLGFTMNHDRIWEIMNEHRDW,not soluble
17,MVTKTEEIQLNQLENQVENGGGGVWEYLCLVRKLKVRRSEIVLKHGLSILNDSGKRSALGPDEWTLYEQVAIAAMDCQSLGVAQNCIKVLKKKFPESKRVGKLEALLLEAKGMWEEAEKAYTSLLEDNPLDQVIHKRKVAMAKAQGKSSLAIEHLNKYLEVFMADHDAWRELAEIYVSLQMYKQAAFCYEELILTQPTLPLYHLAYADVLYTIGGLENLIAARKYYAATIDLTGGKSTRALLGICLCGSAIAQISKGRNKEDKDMAAPELQSLAATALEREYKQKAPAKLNLLTSALRNLKIA,not soluble
18,YDRRVHRFRKNWERIIPTHSKIQYAGNMGLLSFGTGWDYGKRNQWETDLLLGFIPKYSSKKAKVTMTLKQNYMPWSINLGKGFSTEPLSCGLYLNTVFGNQFWVSEPERYPKGYYGFSSKVRIHVFMGQRLTYDIDPNRRFLAKSVTFFYEISTCDLYLISGVTNSYLRPRDYLSLSFGLKFQWL,not soluble
19,MGAGESSMALEKHLFDLKFAAKQLEKNAQRCEKDEKVEKDKLTAAIKKGNKEVAQVHAENAIRKKNEAVNYIKMAARIDAVAARVQTAATQKRVTASMSGVVKAMESAMKSMNLEKVQQLMDRFERDFEDLDVTTKTMEKTMDGTTVLNAPKSQVDALIAEAADKAGIELNQELPSNVPTALPTGTQAVSEDKDLTERLAALRNM,not soluble
